The Kd is a measure of binding affinity in units of concentration. Usually koff stands for the first-order rate constant of dissociation. As a reminder, the kon is the second-order rate constant of association.

Experimental findings from US20170246263A1 (SHIRE HUMAN GENETIC THERAPIES, published 2017) are described below.

Assay [1] deals with T1, SORT1 on SORT1 overexpressing cells (Homo sapiens (Human), UniProt Q99523 78-831).
T1 sequence: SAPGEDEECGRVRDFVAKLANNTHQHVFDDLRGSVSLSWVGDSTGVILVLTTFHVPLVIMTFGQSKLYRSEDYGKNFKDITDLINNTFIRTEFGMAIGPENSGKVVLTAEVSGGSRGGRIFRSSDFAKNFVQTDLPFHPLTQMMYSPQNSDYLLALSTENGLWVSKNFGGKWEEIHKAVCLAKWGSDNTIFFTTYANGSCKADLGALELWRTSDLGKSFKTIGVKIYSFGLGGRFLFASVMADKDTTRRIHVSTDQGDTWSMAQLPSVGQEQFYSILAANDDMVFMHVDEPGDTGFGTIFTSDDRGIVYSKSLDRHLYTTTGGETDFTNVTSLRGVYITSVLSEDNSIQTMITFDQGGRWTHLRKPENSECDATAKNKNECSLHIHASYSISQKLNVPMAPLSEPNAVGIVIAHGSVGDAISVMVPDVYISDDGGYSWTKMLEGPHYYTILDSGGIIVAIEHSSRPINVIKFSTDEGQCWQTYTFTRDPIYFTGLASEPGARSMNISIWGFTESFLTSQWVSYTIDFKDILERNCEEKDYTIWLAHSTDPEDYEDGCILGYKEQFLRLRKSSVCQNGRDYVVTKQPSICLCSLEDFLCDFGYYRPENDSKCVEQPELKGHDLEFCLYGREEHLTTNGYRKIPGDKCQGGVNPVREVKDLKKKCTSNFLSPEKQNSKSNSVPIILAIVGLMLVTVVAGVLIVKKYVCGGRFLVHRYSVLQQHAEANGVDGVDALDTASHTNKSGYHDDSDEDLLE
Description: cell-based or functional assay.

Assay [2] deals with T2, recombinant 6xHistidine tagged human SORT1 (human, UniProt Q99523 78-755).
T2 construct: Captured on the chip by an anti-His mAb; also called SORT1-6xHis; Sortilin-6xHis
T2 sequence: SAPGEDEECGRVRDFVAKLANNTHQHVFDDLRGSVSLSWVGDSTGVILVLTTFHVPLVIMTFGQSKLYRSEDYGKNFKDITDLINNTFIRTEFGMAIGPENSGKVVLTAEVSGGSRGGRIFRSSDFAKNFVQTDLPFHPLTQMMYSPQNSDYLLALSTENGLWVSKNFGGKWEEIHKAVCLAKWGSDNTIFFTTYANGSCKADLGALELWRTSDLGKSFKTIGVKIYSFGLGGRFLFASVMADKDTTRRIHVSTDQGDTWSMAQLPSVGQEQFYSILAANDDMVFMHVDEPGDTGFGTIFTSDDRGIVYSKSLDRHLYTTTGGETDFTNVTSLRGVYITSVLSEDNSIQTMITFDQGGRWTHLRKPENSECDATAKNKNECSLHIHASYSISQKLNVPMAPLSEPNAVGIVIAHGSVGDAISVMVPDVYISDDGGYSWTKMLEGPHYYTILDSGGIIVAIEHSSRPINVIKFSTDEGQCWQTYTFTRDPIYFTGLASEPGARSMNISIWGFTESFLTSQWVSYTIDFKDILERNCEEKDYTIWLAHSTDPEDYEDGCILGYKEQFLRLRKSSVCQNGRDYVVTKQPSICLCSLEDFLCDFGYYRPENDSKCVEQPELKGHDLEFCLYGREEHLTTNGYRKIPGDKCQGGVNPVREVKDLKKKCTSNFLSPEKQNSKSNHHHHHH
Description: SPR; SORT1-6xHis captured by anti-His mAb, Naglu-SPP as analyte 0-20 nM. As to the method: (§1) Briefly, anti-His mAb (capturing molecule) was diluted in immobilization buffer and bound on the dextran surface of a SPR sensor chip housed in a microfluidic system. […] As the solution moved over the SPR sensor chip, the analyte bound to the capture complex and an increase in SPR signal (expressed in response units, RU) was observed. Finally, a solution without analyte was injected into the microfluidic device to detach bound […] from the capture complex, resulting in a decrease in SPR signal. The detailed experimental conditions are described in Table 6 below.
(In SPR one partner is held on a chip, and binding of the other changes the refractive index at the surface.)

Assay [3] concerns the target T2, recombinant 6xHistidine tagged human …. Description: SPR; SORT1-6xHis captured on anti-His mAb, Naglu-SPP 0.625-20 nM as analyte; value from the fit table under the sensorgrams. The procedure:
as §1

The target of assay [4] is T1, SORT1 on SORT1 overexpressing cells. Kind of assay: binding/uptake assay on SORT1 overexpressing cells; intracellular Naglu activity against fusion protein concentration; cellular uptake assay on SORT1 overexpressing cells, read as intracellular Naglu activity. The procedure: A cell line was established overexpressing SORT1, using standard technologies known in the art. […] After a specified period of time, the supernatant was removed and the cells were washed repeatedly. Then, cells were lysed and each sample was assayed for Naglu enzyme activity.

B1: Naglu-SPP fusion protein (enzyme)
chain: DEAREAAAVRALVARLLGPGPAADFSVSVERALAAKPGLDTYSLGGGGAARVRVRGSTGVAAAAGLHRYLRDFCGCHVAWSGSQLRLPRPLPAVPGELTEATPNRYRYYQNVCTQSYSFVWWDWARWEREIDWMALNGINLALAWSGQEAIWQRVYLALGLTQAEINEFFTGPAFLAWGRMGNLHTWDGPLPPSWHIKQLYLQHRVLDQMRSFGMTPVLPAFAGHVPEAVTRVFPQVNVTKMGSWGHFNCSYSCSFLLAPEDPIFPIIGSLFLRELIKEFGTDHIYGADTFNEMQPPSSEPSYLAAATTAVYEAMTAVDTEAVWLLQGWLFQHQPQFWGPAQIRAVLGAVPRGRLLVLDLFAESQPVYTRTASFQGQPFIWCMLHNFGGNHGLFGALEAVNGGPEAARLFPNSTMVGTGMAPEGISQNEVVYSLMAELGWRKDPVPDLAAWVTSFAARRYGVSHPDAGAAWRLLLRSVYNCSGEACRGHNRSPLVRRPSLQMNTSIWYNRSDVFEAWRLLLTSAPSLATSPAFRYDLLDLTRQAVQELVSLYYEEARSAYLSKELASLLRAGGVLAYELLPALDEVLASDSRFLLGSWLEQARAAAVSEAEADFYEQNSRYQLTLWGPEGNILDYANKQLAGLVANYYTPRWRLFLEALVDSVAQGIPFQQHQFDKNVFQLEQAFVLSKQRYPSQPRGDTVDLAKKIFLKYYPRWVAGSWGAPGGGGGAAAAAGGGGGGAPGGGGGAAAAAGGGGGGAPGGGGGAAAAAGGGGGGAPQDRLDAPPPPAAPLPRWSGPIGVSWGLRAAAAGGAFPRGGRWRR
B1: in assay [1], the “Kd (cellular uptake: Naglu activity in lysates of SORT1 overexpressing cells) [A]” value amounted to 155 nM. Moreover, in assay [2], the equilibrium dissociation constant (Kd) is about 0.66 nM, the koff is about 0.00071 s⁻¹ and the kon was about 1.1e+06 M⁻¹ s⁻¹. Further, in assay [3], the Kd came to 0.663 nM, the koff is 0.000708 s⁻¹ and the kon amounted to 1.07e+06 M⁻¹ s⁻¹. The molecule also yielded a Kd in assay [4] of 155 nM.

B2: Naglu-tPRGN fusion protein (enzyme)
chain: DEAREAAAVRALVARLLGPGPAADFSVSVERALAAKPGLDTYSLGGGGAARVRVRGSTGVAAAAGLHRYLRDFCGCHVAWSGSQLRLPRPLPAVPGELTEATPNRYRYYQNVCTQSYSFVWWDWARWEREIDWMALNGINLALAWSGQEAIWQRVYLALGLTQAEINEFFTGPAFLAWGRMGNLHTWDGPLPPSWHIKQLYLQHRVLDQMRSFGMTPVLPAFAGHVPEAVTRVFPQVNVTKMGSWGHFNCSYSCSFLLAPEDPIFPIIGSLFLRELIKEFGTDHIYGADTFNEMQPPSSEPSYLAAATTAVYEAMTAVDTEAVWLLQGWLFQHQPQFWGPAQIRAVLGAVPRGRLLVLDLFAESQPVYTRTASFQGQPFIWCMLHNFGGNHGLFGALEAVNGGPEAARLFPNSTMVGTGMAPEGISQNEVVYSLMAELGWRKDPVPDLAAWVTSFAARRYGVSHPDAGAAWRLLLRSVYNCSGEACRGHNRSPLVRRPSLQMNTSIWYNRSDVFEAWRLLLTSAPSLATSPAFRYDLLDLTRQAVQELVSLYYEEARSAYLSKELASLLRAGGVLAYELLPALDEVLASDSRFLLGSWLEQARAAAVSEAEADFYEQNSRYQLTLWGPEGNILDYANKQLAGLVANYYTPRWRLFLEALVDSVAQGIPFQQHQFDKNVFQLEQAFVLSKQRYPSQPRGDTVDLAKKIFLKYYPRWVAGSWGAPGGGGGAAAAAGGGGGGAPGGGGGAAAAAGGGGGGAPGGGGGAAAAAGGGGGGAPTKCLRREAPRWDAPLRDPALRQLL
notes: also called Naglu-tPGRN
In the case of B2, in assay [4], the Kd was determined as 392 nM.
